Experimental data published in US11254722B2, “Recombinant proteins and uses thereof” (ACADEMIA SINICA, priority 2017, dated 2022).

Key:
[1] = tested on: hep3B cells; assay: hep3B proliferation assay; assay type: cell-based, human
Procedure: (§1) For the proliferation assay, cells except for HUVEC were seeded at a density of 1,000 to 6,000 in 96 wells in an assay buffer of DMEM/F12 plus 0.2% BSA and 10 ug/ml transferrin. Chemical inhibitors were added after 16-20 hours after plating; IGF-1 or other growth factors or test chimeras in assay buffer were added at the time of plating or 16-20 hours after plating. 5,000 HUVEC ells were plated in poly-L-lysine coated 96 wells in M199 with 1%/FBS and HEPES. After 3 to 4 days of culture, growth was determined by incubating cells with Alamar blue for 4 to 6 hours and then the fluorescence (RFU) at 544/590 nm was read. For long term proliferation assays, cells were plated in the growth media with 5% or 10% FBS at densities of 500 to 10,000 cells per cm^2 growth area and grown for 7 to 21 days. Inhibitors and effectors were added 1-4 days after plating. Cells were exposed to cisplatin or gemcitabine for two days. Medium was renewed twice weekly. At completion, cells were fixed and then stained with Giemsa.
The human hepatoma cell line hep3B could be stimulated by many growth factors including IGF-1, IGF-2, HGF, bFGF, VEGF, and neuregulin.

[2] = tested on: MCF-7 breast cancer cells; assay: MCF-7 proliferation assay; assay type: cell-based; details: fetal bovine serum; FIG. 1, FIG. 4
Procedure: MCF-7 cells (a breast cancer cell line) were maintained in MEM (GIBCO) plus insulin and NEAA and 10% FBS (Hyclone).
as §1
We next examined the effect of 56662 (BP3/Fc) on the proliferation induced by growth factors that interacted with the IGFBP3. The proliferation of MCF-7 breast cancer cells was induced in serum-free medium by individual growth factors like IGF-1, IGF-2, EGF, TGF-a, Nrgbx, b-FGF, and amphiregulin (FIG. 1).

COc1cccc2c1C(=O)c1c(O)c3c(c(O)c1C2=O)C[C@@](O)(C(=O)CO)C[C@@H]3O[C@H]1C[C@H](N)[C@H](O)[C@H](C)O1 [doxorubicin, reference compound]
proliferation of hep3B cells ([1]; 0.01 uM doxorubicin): greatly inhibited

B1: 105795: IGFBP3 with IGFBP4 linker deletion-Fc, SEQ ID NO: 9 (protein)
chain: MSEVPVARVWLVLLLLTVQVGVTAGGASSAGLGPVVRCEPCDARALAQCAPPPAVCAELVREPGCGCCLTCALSEGQPCGIYTERCGSGLRCQPSPDEARPLQALLDGRGLCMELAEIEAIQESLQPSDKDEGDHPNNSFSPCSAHDRRCLQETEYGPCRREMEDTLNHLKFLNVLSPRGVHIPNCDKKGFYKKKQCRPSKGRKRGFCWCVDKYGQPLPGYTTKGKEDVHCYSMQSKVECPPCPAPPVAGPSVFLFPPKPKDQLMISRTPEVTCVVVDVSHEDPEVKFNWYVDGVEVHNAKTKPREEQYNSTYRVVSVLTVLHQDWLNGKEYKCKVSNKGLPSSIEKTISKAKGQPREPQVYTLPPSREEMTKNQVSLTCLVKGFYPSDIAVEWESNGQPENNYKTTPPVLDSDGSFFLYSKLTVDKSRWQQGNVFSCSVMHEGLHNHYTQKSLSLSPGK
inhibition of FBS-induced proliferation of MCF-7 [2]: unable to inhibit

B2: 80716: IGFBP3 with IGFBP6 linker-gly 6 linker-v1v2-Fc, SEQ ID NO: 16 (protein)
chain: MSEVPVARVWLVLLLLTVQVGVTAGGASSAGLGPVVRCEPCDARALAQCAPPPAVCAELVREPGCGCCLTCALSEGQPCGIYTERCGSGLRCQPSPDEARPLQALLDGRGLCPARAPAVAEENPKESKPQAGTARPQDVNRRDQQRNPGTSTTPSQPNSAGVQDTEMGPCRREMEDTLNHLKFLNVLSPRGVHIPNCDKKGFYKKKQCRPSKGRKRGFCWCVDKYGQPLPGYTTKGKEDVHCYSMQSKPARAPAVAEENPKESKPQAGTARPQDVNRRDQQRNPGTSTTPSQPNSAGVQDTEMIYIFISDTGRPFVEMYSEIPEIIHMTEGRELVIPCRVTSPNITVTLKKFPLDTLIPDGKRIIWDSRKGFIISNATYKEIGLLTCEATVNGHLYKTNYLTHRQGYRIYDVVLSPSHGIELSVGEKLVLNCTARTELNVGIDFNWEYPSSKHQHKKLVNRDLKTQSGSEMKKFLSTLTIDGVTRSDQGLYTCAASSGLMTKKNSTFVRVHEKVECPPCPAPPVAGPSVFLFPPKPKDQLMISRTPEVTCVVVDVSHEDPEVKFNWYVDGVEVHNAKTKPREEQYNSTYRVVSVLTVLHQDWLNGKEYKCKVSNKGLPSSIEKTISKAKGQPREPQVYTLPPSREEMTKNQVSLTCLVKGFYPSDIAVEWESNGQPENNYKTTPPVLDSDGSFFLYSKLTVDKSRWQQGNVFSCSVMHEGLHNHYTQKSLSLSPGK
inhibition of FBS-induced proliferation of MCF-7 [2]: unable to inhibit

B3: met3con: SEQ ID NO: 32; Met3con is the met3 domain Fc (protein)
chain: MSEVPVARVWLVLLLLTVQVGVTAGAAASGGGSGGGGSGGGGSGGGGDPIVYEIHPTKSFISTWWKEPLNIVSFLFCFASGGSTITGVGKNLNSVSVPRMVINVHEAGRNFTVACQHRSNSEIICCTTPSLQQLNLQLPLKTKAFFMLDGILSKYFDLIYVHSGGGSGGGTGVECPPCPAPPVAGPSVFLFPPKPKDQLMISRTPEVTCVVVDVSHEDPEVKFNWYVDGVEVHNAKTKPREEQYNSTYRVVSVLTVLHQDWLNGKEYKCKVSNKGLPSSIEKTISKAKGQPREPQVYTLPPSREEMTKNQVSLTCLVKGFYPSDIAVEWESNGQPENNYKTTPPVLDSDGSFFLYSKLTVDKSRWQQGNVFSCSVMHEGLHNHYTQKSLSLSPGK
IC50, FBS-stimulated proliferation of hep3B cells ([1]; Table 10): no inh
IC50, HGF-stimulated proliferation of hep3B cells ([1]; Table 10): no inh
IC50, IGF1-stimulated proliferation of hep3B cells ([1]; Table 10): No inh
IC50, bFGF-stimulated proliferation of hep3B cells ([1]; Table 10): no inh
IC50, nrg-stimulated proliferation of hep3B cells ([1]; Table 10): No inh
